One molecule from article doi:10.1101/2020.10.08.332312 (bioRxiv, 2020) can be followed below.

This assay addresses T1, Trs31 (subunit of the recombinant TRAPPIII complex) (S. cerevisiae, UniProt Q03337 1-283).
T1 sequence: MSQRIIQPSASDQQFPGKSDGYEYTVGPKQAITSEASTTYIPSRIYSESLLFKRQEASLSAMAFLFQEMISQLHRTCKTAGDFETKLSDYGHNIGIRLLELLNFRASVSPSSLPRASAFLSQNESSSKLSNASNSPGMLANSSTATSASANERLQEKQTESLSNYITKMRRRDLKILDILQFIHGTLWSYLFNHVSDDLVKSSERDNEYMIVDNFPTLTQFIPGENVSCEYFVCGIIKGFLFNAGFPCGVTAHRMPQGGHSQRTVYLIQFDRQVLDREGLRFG
As to the kind of experiment: cryo-EM structure.

B1: Ypt1-7xHis (yeast Rab1/Ypt1 with the two C-terminal cysteines replaced by an affinity tag) (natural protein)
chain: not shown
In the case of B1, the binding result is given as “binds”.
